Laboratory results reported in patent US20090162358A1 (GlaxoSmithKline, published 2009).
Values joined by “and” are separate entries in the source; they are usually repeats but may differ in a detail not shown here. Equal entries are not always repeated. Ends that are not written are not given here. * marks the point of attachment. Biotin = O=C1N[C@H]2[C@H](CS[C@H]2CCCCC(=O)*)N1

Columns and labels:
[1] = target: T1, C-terminally truncated β-amyloid peptide lacking residues V40 to G33 (residues 23-32) (UniProt P05067 694-703, not fully specified); experiment: SRU BIND biosensor, biotinylated peptides on streptavidin plate
T1 construct: domain: β-amyloid residues 23-32; Stands also for the shorter peptides of the set ('and beyond'); not shown: SGSG linker lengthened to make a 22-mer
T1 peptide (looked up): Biotin-DVGSNKGAII-NH2
Excerpt: (§1) The minimal binding epitope of the humanised monoclonal antibody H11L9 was fine mapped using SRU BIND plate reader (SRU Biosystems). Three peptide sets were generated, based on an 18 amino acid sequence for fine mapping of the epitope: a) an alanine scanning peptide set for which 10 of the residues 27-37 were replaced consecutively with an alanine residue; b) a set of N-terminally truncated peptides where one residue was removed successively from the N-terminus of the 18-mer peptide starting with residue 23 and c) a set of C-terminally truncated peptides where one residue was removed successively from the C-terminus of the 18-mer peptide starting with residue 40.
(§2) A streptavidin coated biosensor plate (SRU Biosystems) was washed with PBS and spun upside down to remove buffer and then washed with PBS, 0.1% tween 20 and 0.4% acetonitrile and spun upside down to remove residual buffer. Wells were resuspended in 100 ul of PBS, 0.1% tween 20 and 0.4% acetonitrile and read on the SRU plate reader to establish a baseline. […] The plate was then washed with PBS twice and then resuspended in 100 ul of PBS and the baseline re-measured. […] Binding of the antibodies was monitored. Plates were washed twice with PBS and resuspended in 100 ul of PBS, and the plates were re-measured and referenced back to the addition of antibody to look for weak binders that would be removed by the washing step. […]

[2] = target: T2, N-terminally truncated β-amyloid peptide lacking residues D23 to I31 (residues 32-40) (UniProt P05067 703-711, not fully specified); experiment: as above
T2 construct: domain: β-amyloid residues 32-40; Stands also for the shorter peptides of the set ('and beyond'); not shown: SGSG linker lengthened to make a 22-mer
T2 peptide (looked up): Biotin-IGLMVGGVV-NH2
Excerpt: as §1, §2

human β-amyloid 1-40 [3] = target: T3, human β-amyloid 1-40 (human, UniProt P05067 672-711); experiment: SPR Biacore T100, 25 C; antibody captured on protein A, Aβ 1-40 at 2-256 nM; mean of three experiments
T3 construct: domain: β-amyloid (1-40); Used in solution over captured antibody (Biacore) or coated on ELISA plates; also called human Aβ peptide (1-40); Aβ peptide (1-40)
Protocol: The affinity of selected heavy and light chain combinations was determined using a Biacore T100 instrument. Three independent experiments were performed using humanised antibody immobilised via protein A surface Biacore chips and injection of β-amyloid 1-40 peptides. The chimeric molecule of 6F6 served as a reference molecule. For this Protein A was immobilised on a CM5 chip by primary amine coupling in accordance with manufactures recommendations. Anti-β-amyloid antibodies were captured on this surface and after a period of stabilisation human β-amyloid 1-40 was passed over at concentrations 256-2 nM in halving dilutions. A buffer injection over the captured antibody surface was used to double reference the data set in accordance with Biacore best practice. […] The work was carried out in HBS-EP at 25° C. Results are summarised in Table 13 as the mean of all three experiments.

[4] = target: T4, biotinylated β-amyloid 1-40 (human Aβ1-40 peptide in solution, competition ELISA) (human, UniProt P05067 672-711, biotin, position not stated); experiment: competition ELISA: antibody pre-incubated with biotinylated Aβ 1-40, free Aβ captured on immobilised mouse 6F6 (competitor); Exp 2
T4 construct: domain: β-amyloid (1-40)
Protocol: (§3) 6F6c and humanised antibodies H₁₁L2, H11L9, H11L10, H11L12 and H11L13 were assessed for their ability to bind Aβ1-40 peptide in solution and inhibit the interaction of human Aβ1-40 peptide with mouse 6F6 monoclonal antibody in a competition ELISA. A constant concentration of biotinylated β-amyloid 1-40 was pre-incubated with serial diluted amounts of humanised 6F6 antibody variants. The mixture including complexed and free amyloid was then added to wells containing immobilised mouse 6F6 monoclonal antibody and incubated for 15 minutes at room temperature. Plates were washed and the amount of free β-amyloid that was still available for binding the immobilised parental 6F6 monoclonal antibody was then detected using streptavidin-HRP conjugate.

human β-amyloid 1-40 [5] = target: T3, human β-amyloid 1-40; experiment: SPR Biacore T100; antibody captured on anti-human IgG, Aβ 1-40 at 1-256 nM; 1:1 model
Protocol: (§4) Anti-human IgG (Biacore BR-1008-39) was coupled to a CM5 biosensor chip by primary amine coupling. The anti-beta amyloid antibodies were captured on this surface. Beta amyloid (1-40) was then passed over at 256, 64, 16, 4 and 1 nM, with a 0 nM (ie buffer alone passed over the captured antibody surface) used for double referencing. […] The data was analysed using the 1:1 model inherent to the T100. The run was carried out at 25° C. and 37° C. using HBS-EP as the running buffer.

human β-amyloid 1-40 [6] = target: T3, human β-amyloid 1-40; experiment: SPR Biacore T100 at 37 C; antibody captured on anti-human IgG, Aβ 1-40 at 1-256 nM
Protocol: as §4
From this panel some constructs were also assessed for binding kinetics at physiological temperature.

[7] = target: T4, biotinylated β-amyloid 1-40 (human …); experiment: competition ELISA: antibody pre-incubated with biotinylated Aβ 1-40, free Aβ captured on immobilised mouse 6F6 (competitor); Exp 1
Protocol: as §3

human β-amyloid 1-40 [8] = target: T3, human β-amyloid 1-40; experiment: SPR Biacore 3000; mAb captured on anti-mouse IgG, Aβ 1-40 at 4-500 nM
Protocol: (§5) Purified mouse antibody preparations were captured on a polyclonal anti-mouse IgG antibody chip surface. Freshly prepared human β-amyloid 1-40 was diluted down in HBS-EP buffer and passed over the captured antibody surface at concentrations ranging from 4-500 nM for 5 minutes. […] Regeneration was achieved via a pulse of 100 mM H₃PO₄. […] All runs were double referenced against a blank surface and blank buffer injections.

[9] = target: T5, C-terminally biotinylated peptide representing 28-39 of the β-amyloid sequence; experiment: SPR Biacore 3000, biotinylated peptide on streptavidin chip, 6F6 at 8-64 nM
T5 construct: Captured on a streptavidin sensorchip; also called peptide 28-39
T5 peptide: KGAIIGLMVGGVGSG-biotin
Protocol: (§6) Purified 6F6 monoclonal antibody was injected for 3 min at 8-64 nM over C-terminally biotinylated peptides representing 24-35 (SEQ ID No:10: […]), 28-39 (SEQ ID No:11: […]) and 31-42 (SEQ ID No:12: […]) of the β-amyloid sequence captured by a streptavidin coated sensorchip. The experiment was performed using a Biacore 3000 instrument. […] It may also indicate that residues 31-35 are not sufficient for binding 6F6 and residues above position 35 appear not to be involved in binding this antibody.

[10] = target: T6, C-terminally biotinylated peptide representing 24-35 of the β-amyloid sequence; experiment: as above
T6 construct: Captured on a streptavidin sensorchip; also called peptide 24-35
T6 peptide: VGSNKGAIIGLMGSG-biotin
Protocol: as §6

[11] = target: T7, N-terminal biotinylated β-amyloid (24-34) peptide; experiment: FMAT bead immunoassay, culture supernatant
T7 peptide: Biotin-VGSNKGAIIGL
Excerpt: (§7) Each of the expressed antibodies contained in culture supernatant was then screened in an FMAT (Fluorescent Microvolume Assay Technology) homogenous immunoassay. 29 positive antibodies were identified from this screening cascade that were negative for ovalbumin protein passively absorbed to polystyrene beads but positive for: [0158] (i) N-terminal coupled […] (22-38) (SEQ ID No:73) ovalbumin conjugate bound to polystyrene beads, [0159] (ii) N-terminal biotinylated β-amyloid(1-40) peptide bound to streptavidin coated polystyrene beads, [0160] (iii) C-terminal biotinylated β-amyloid(1-40) peptide bound to streptavidin coated polystyrene beads and [0161] (iv) N-terminal biotinylated β-amyloid (24-34) peptide, residues 24-34 of β-amyloid being […] (SEQ ID No:8), bound to streptavidin coated polystyrene beads.

[12] = target: T8, N-terminal coupled CGGGEDVGSNKGAIIGLMVGG (22-38) ovalbumin conjugate (coupled by the N-terminus to ovalbumin); experiment: FMAT bead immunoassay, culture supernatant
T8 peptide: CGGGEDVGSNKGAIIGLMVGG
Excerpt: as §7

ovalbumin protein = target: T9, ovalbumin protein (UniProt P01012 2-386); experiment: FMAT bead immunoassay, culture supernatant
T9 sequence (looked up): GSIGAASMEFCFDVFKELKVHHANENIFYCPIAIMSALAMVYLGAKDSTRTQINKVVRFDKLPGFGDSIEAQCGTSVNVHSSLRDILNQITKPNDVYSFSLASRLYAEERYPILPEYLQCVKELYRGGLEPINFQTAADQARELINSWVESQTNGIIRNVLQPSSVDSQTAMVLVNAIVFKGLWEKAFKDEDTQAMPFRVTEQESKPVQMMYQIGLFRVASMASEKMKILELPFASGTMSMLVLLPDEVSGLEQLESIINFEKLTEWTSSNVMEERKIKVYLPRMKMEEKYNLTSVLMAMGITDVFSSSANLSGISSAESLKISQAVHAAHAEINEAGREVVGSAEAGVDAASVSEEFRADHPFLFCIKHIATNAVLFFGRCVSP
Excerpt: as §7

mouse β-amyloid (1-42) = target: T10, mouse β-amyloid (1-42) (mouse, UniProt P12023 672-713); experiment: SPR Biacore, same method as Table 2
T10 construct: domain: β-amyloid (1-42)
T10 peptide (looked up): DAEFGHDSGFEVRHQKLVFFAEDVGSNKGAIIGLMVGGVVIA
Protocol: as §5
(§8) The same Biacore method was also used to investigate binding of 6F6 to human and mouse β-amyloid (1-40) and β-amyloid (1-42). 6F6 bound to all of these peptides with similar values.

mouse β-amyloid (1-40) = target: T11, mouse β-amyloid (1-40) (mouse, UniProt P12023 672-711); experiment: SPR Biacore, same method as Table 2
T11 construct: domain: β-amyloid (1-40)
T11 peptide (looked up): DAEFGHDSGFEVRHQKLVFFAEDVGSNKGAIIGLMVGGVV
Protocol: as §5, §8

[13] = target: T12, C-terminally biotinylated peptide representing 31-42 of the β-amyloid sequence; experiment: SPR Biacore 3000, biotinylated peptide on streptavidin chip
T12 construct: Captured on a streptavidin sensorchip; also called peptide 31-42
T12 peptide: IIGLMVGGVVIAGSG-biotin
Protocol: as §6

human β-amyloid 1-40 [14] = target: T3, human β-amyloid 1-40; experiment: SPR Biacore 3000; mAb captured on anti-mouse IgG; triplicate run
Protocol: as §5

B1: humanised antibody H11L9 (antibody, human IgG1, kappa)
heavy: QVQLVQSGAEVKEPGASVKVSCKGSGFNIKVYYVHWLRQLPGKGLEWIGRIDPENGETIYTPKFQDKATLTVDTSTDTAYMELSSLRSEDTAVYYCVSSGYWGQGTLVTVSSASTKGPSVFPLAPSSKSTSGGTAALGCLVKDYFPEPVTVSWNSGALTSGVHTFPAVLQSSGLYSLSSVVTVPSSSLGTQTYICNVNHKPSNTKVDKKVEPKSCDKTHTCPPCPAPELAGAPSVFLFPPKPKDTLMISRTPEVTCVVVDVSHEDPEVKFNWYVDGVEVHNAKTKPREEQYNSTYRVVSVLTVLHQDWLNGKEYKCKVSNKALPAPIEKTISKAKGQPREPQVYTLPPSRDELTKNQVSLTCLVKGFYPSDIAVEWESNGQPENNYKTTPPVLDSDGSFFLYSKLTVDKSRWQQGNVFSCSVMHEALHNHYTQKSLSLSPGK
light: DIVMTQSPLSNPVTPGEPASISCRSSKSLLHRNGITYLYWYLQKPGQSPQLLIYQMSNLASGVPDRFSSSGSGTDFTLKISRVEAEDVGVYYCAQNLELWTFGQGTKVEIKRTVAAPSVFIFPPSDEQLKSGTASVVCLLNNFYPREAKVQWKVDNALQSGNSQESVTEQDSKDSTYSLSSTLTLSKADYEKHKVYACEVTHQGLSSPVTKSFNRGEC
notes: Human IgG1 Fc mutated heavy chain, human kappa; also called H11L9(sup); H11L9(pur)
[1]
  binding result: no binding (tested: 30 ug/ml)
[2]
  binding result: no binding (tested: 30 ug/ml)
Human β-amyloid 1-40 [3]
  Kd: 4.91 nM
[4]
  IC50: 0.518 µg/mL
Human β-amyloid 1-40 [5]
  Kd: 2.47 nM and 2.46 nM
Human β-amyloid 1-40 [6]
  Kd: 2.89 nM and 3.11 nM
[7]
  IC50: 0.588 µg/mL

B2: 6F6 murine monoclonal antibody (antibody, mouse IgG2a, V domains shown)
VH: EVQLQQSGAELVEPGASVKLSCTGSGFNIKVYYVHWLKQLTEQGLEWIGRIDPENGETIYTPKFQDKATLTVDTSSNTAYLQLSSLTSEDAAVYYCVSSGYWGQGTTLTVSS
VL: DIVMTQSAFSNPVTLGTSASISCRSSKSLLHRNGITYLYWYLQKPGQPPQLLIYQMSNLASGVPDRFTSSGSGTDFTLKISRVEAEDVGVYYCAQNLELWTFGGGTKLEIK
notes: also called 6F6 parental monoclonal antibody; mouse 6F6 monoclonal antibody
Human β-amyloid 1-40 [8]
  Kd: 0.62 nM
  koff: 6.57e-05 s⁻¹
  kon: 106000 M⁻¹ s⁻¹
[9]
  binding result: binds
[10]
  binding result: binds
[11]
  binding result: binds
[12]
  binding result: binds
Ovalbumin protein
  binding result: no binding
Mouse β-amyloid (1-42)
  binding result: binds
Mouse β-amyloid (1-40)
  binding result: binds
[13]
  binding result: no binding (tested: 8-64 nM)
Human β-amyloid 1-40 [14]
  Kd: 1.02 nM
  koff: 9.4e-05 s⁻¹
  kon: 99300 M⁻¹ s⁻¹
